The record followed here is article PMC3469418 (2012).

Assay in all cases: SPR
Assay [1] concerns the target T1, RPL12 unmodified peptide (D. melanogaster, UniProt Q9W1B9).
Assay [2] has as its target T2, RPL12 peptide trimethylated on lysine 3 (D. melanogaster, UniProt Q9W1B9, trimethyl-lysine at 3 (K3me3)).
For assay [3], the target named is RPL12 peptide dimethylated on lysine 3 (D. melanogaster, UniProt Q9W1B9, dimethyl-lysine at 3 (K3me2)).
For assay [4], the target named is T1, RPL12 unmodified peptide. The source holds these as a separate data set.
Assay [5] has as its target T2, RPL12 peptide trimethylated on lysine 3. This is another data set of the same source.

Where two headings read alike, the source gives them in different places.

B1: GST-HP1CD (HP1 chromodomain fused to GST) (domain or fragment)
chain: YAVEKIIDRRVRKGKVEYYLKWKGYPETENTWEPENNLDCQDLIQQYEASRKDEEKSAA
For B1, the results for the Kd (with RPL12 unmodified peptide [1]; in assay [2]) were greater than 1000 µM and 292 µM, respectively.

B2: GST-CortoCD (Corto chromodomain fused to GST) (domain or fragment)
chain: TASSNSNAAPAPSPQKDYSIPLHVDCSVEYELPNQPKPPAGQRVEPLLMIHPCYFRKMESQRRSPFVNNMHATARAV
For the molecule B2, the Kd came to 238 µM in assay [3] and 624 µM in the assay with RPL12 unmodified peptide [4]. The dissociation rate constant (koff) in assay [3] came out at 0.00099 s⁻¹; in the assay with RPL12 unmodified peptide [4], 0.00076 s⁻¹; in assay [5], 0.00082 s⁻¹.
